Measured values published in patent publication US20130202609.
Substitutions are numbered along the chain they refer to. Names and notes keep the numbering of the source.

Molecular target: interleukin-8 (IL-8; CXCL8)

B1: wild-type GAS57 (Spy0416), recombinant, purified from E. coli (protein)
chain 1: ADELSTMSEPTITNHAQQQAQHLTNTELSSAESKSQDTSQITLKTNREKEQSQDLVSEPTTTELADTDAASMANTGSDATQKSASLPPVNTDVHDWVKTKGAWDKGYKGQGKVVAVIDTGIDPAHQSMRISDVSTAKVKSKEDMLARQKAAGINYGSWINDKVVFAHNYVENSDNIKENQFEDFDEDWENFEFDAEAEPKAIKKHKIYRPQ
chain 2: STQAPKETVIKTEETDGSHDIDWTQTDDDTKYESHGMHVTGIVAGNSKEAAATGERFLGIAPEAQVMFMRVFANDIMGSAESLFIKAIEDAVALGADVINLSLGTANGAQLSGSKPLMEAIEKAKKAGVSVVVAAGNERVYGSDHDDPLATNPDYGLVGSPSTGRTPTSVAAINSKWVIQRLMTVKELENRADLNHGKAIYSESVDFKDIKDSLGYDKSHQFAYVKESTDAGYNAQDVKGKIALIERDPNKTYDEMIALAKKHGALGVLIFNNKPGQSNRSMRLTANGMGIPSAFISHEFGKAMSQLNGNGTGSLEFDSVVSKAPSQKGNEMNHFSNWGLTSDGYLKPDITAPGGDIYSTYNDNHYGSQTGTSMASPQIAGASLLVKQYLEKTQPNLPKEKIADIVKNLLMSNAQIHVNPETKTTTSPRQQGAGLLNIDGAVTSGLYVTGKDNYGSISLGNITDTMTFDVTVHNLSNKDKTLRYDTELLTDHVDPQKGRFTLTSHSLKTYQGGEVTVPANGKVTVRVTMDVSQFTKELTKQMPNGYYLEGFVRFRDSQDDQLNRVNIPFVGFKGQFENLAVAEESIYRLKSQGKTGFYFDESGPKDDIYVGKHFTGLVTLGSETNVSTKTISDNGLHTLGTFKNADGKFILEKNAQGNPVLAISPNGDNNQDFAAFKGVFLRKYQGLKASVYHASDKEHKNPLWVSPESFKGDKNFNSDIRFAKSTTLLGTAFSGKSLTGAELPDGHYHYVVSYYPDVVGAKRQEMTFDMILDRQKPVLSQATFDPETNRFKPEPLKDRGLAGVRKDSVFYLERKDNKPYTVTINDSYKYVSVEDNKTFVERQADGSFILPLDKAKLGDFYYMVEDFAGNVAIAKLGDHLPQTLGKTPIKLKLTDGNYQTKETLKDNLEMTQSDTGLVTNQAQLAVVHRNQPQSQLTKMNQDFFISPNEDGNKDFVAFKGLKNNVYNDLTVNVYAKDDHQKQTPIWSSQAGASVSAIESTAWYGITARGSKVMPGDYQYVVTYRDEHGKEHQKQYTISVNDKKPMITQGRFDTINGVDHFTPDKTKALDSSGIVREEVFYLAKKNGRKFDVTEGKDGITVSDNKVYIPKNPDGSYTISKRDGVTLSDYYYLVEDRAGNVSFATLRDLKAVGKDKAVVNFGLDLPVPEDKQIVNFTYLVRDADGKPIENLEYYNNSGNSLILPYGKYTVELLTYDTNAAKLESDKIVSFTLSADNNFQQVTFKITMLATSQITAHFDHLLPEGSRVSLKTAQDQLIPLEQSLYVPKAYGKTVQEGTYEVVVSLPKGYRIEGNTKVNTLPNEVHELSLRLVKVGDASDSTGDHKVMSKNNSQALTASATPT
IL-8 cleavage, SDS-PAGE with silver staining: Wild-type GAS57 (lanes 2 and 3) released two bands: 8 kDa (active form) and 6 kDa (inactive cleaved IL-8)
percentage of uncleaved IL-8, ELISA: wild-type GAS57 almost completely inactivated IL-8 after 8 hours, even at the lower concentration

B2: GAS57 mutant D151A, His-tagged (protein)
chain: ADELSTMSEPTITNHAQQQAQHLTNTELSSAESKSQDTSQITLKTNREKEQSQDLVSEPTTTELADTDAASMANTGSDATQKSASLPPVNTDVHDWVKTKGAWDKGYKGQGKVVAVIATGIDPAHQSMRISDVSTAKVKSKEDMLARQKAAGINYGSWINDKVVFAHNYVENSDNIKENQFEDFDEDWENFEFDAEAEPKAIKKHKIYRPQSTQAPKETVIKTEETDGSHDIDWTQTDDDTKYESHGMHVTGIVAGNSKEAAATGERFLGIAPEAQVMFMRVFANDIMGSAESLFIKAIEDAVALGADVINLSLGTANGAQLSGSKPLMEAIEKAKKAGVSVVVAAGNERVYGSDHDDPLATNPDYGLVGSPSTGRTPTSVAAINSKWVIQRLMTVKELENRADLNHGKAIYSESVDFKDIKDSLGYDKSHQFAYVKESTDAGYNAQDVKGKIALIERDPNKTYDEMIALAKKHGALGVLIFNNKPGQSNRSMRLTANGMGIPSAFISHEFGKAMSQLNGNGTGSLEFDSVVSKAPSQKGNEMNHFSNWGLTSDGYLKPDITAPGGDIYSTYNDNHYGSQTGTSMASPQIAGASLLVKQYLEKTQPNLPKEKIADIVKNLLMSNAQIHVNPETKTTTSPRQQGAGLLNIDGAVTSGLYVTGKDNYGSISLGNITDTMTFDVTVHNLSNKDKTLRYDTELLTDHVDPQKGRFTLTSHSLKTYQGGEVTVPANGKVTVRVTMDVSQFTKELTKQMPNGYYLEGFVRFRDSQDDQLNRVNIPFVGFKGQFENLAVAEESIYRLKSQGKTGFYFDESGPKDDIYVGKHFTGLVTLGSETNVSTKTISDNGLHTLGTFKNADGKFILEKNAQGNPVLAISPNGDNNQDFAAFKGVFLRKYQGLKASVYHASDKEHKNPLWVSPESFKGDKNFNSDIRFAKSTTLLGTAFSGKSLTGAELPDGHYHYVVSYYPDVVGAKRQEMTFDMILDRQKPVLSQATFDPETNRFKPEPLKDRGLAGVRKDSVFYLERKDNKPYTVTINDSYKYVSVEDNKTFVERQADGSFILPLDKAKLGDFYYMVEDFAGNVAIAKLGDHLPQTLGKTPIKLKLTDGNYQTKETLKDNLEMTQSDTGLVTNQAQLAVVHRNQPQSQLTKMNQDFFISPNEDGNKDFVAFKGLKNNVYNDLTVNVYAKDDHQKQTPIWSSQAGASVSAIESTAWYGITARGSKVMPGDYQYVVTYRDEHGKEHQKQYTISVNDKKPMITQGRFDTINGVDHFTPDKTKALDSSGIVREEVFYLAKKNGRKFDVTEGKDGITVSDNKVYIPKNPDGSYTISKRDGVTLSDYYYLVEDRAGNVSFATLRDLKAVGKDKAVVNFGLDLPVPEDKQIVNFTYLVRDADGKPIENLEYYNNSGNSLILPYGKYTVELLTYDTNAAKLESDKIVSFTLSADNNFQQVTFKITMLATSQITAHFDHLLPEGSRVSLKTAQDQLIPLEQSLYVPKAYGKTVQEGTYEVVVSLPKGYRIEGNTKVNTLPNEVHELSLRLVKVGDASDSTGDHKVMSKNNSQALTASATPT
IL-8 cleavage, SDS-PAGE with silver staining: the GAS57 D151A mutant released only one band, which corresponded to uncleaved IL-8, as in the control reaction (without enzyme)
percentage of uncleaved IL-8, ELISA: no inactivation was observed for IL-8 treated with the mutant enzyme
uncleaved IL-8 after 24 h incubation, ELISA: the mutants release 100% of uncleaved IL-8 after 24 h incubation

B3: GAS57 double mutant D151A+S617A, His-tagged (protein)
chain: B2 chain with S584A
IL-8 cleavage, SDS-PAGE with silver staining, 24 hours: unable to cleave IL-8, even at a 100-fold higher concentration than wild-type GAS57
uncleaved IL-8 after 24 h incubation, ELISA: the mutants release 100% of uncleaved IL-8 after 24 h incubation

B4: GAS57 mutant S617A, His-tagged (protein)
chain: B2 chain with A118D, S584A
IL-8 cleavage, SDS-PAGE with silver staining, 24 hours: unable to cleave IL-8, even at a 100-fold higher concentration than wild-type GAS57
uncleaved IL-8 after 24 h incubation, ELISA: the mutants release 100% of uncleaved IL-8 after 24 h incubation
